We go through 20 sequences from the DeepSol protein solubility set.

The nature of the data set: soluble on expression in E. coli; label from the status in PepcDB or PDB records.
“MGSDKIHHHHHHLGNNAPRIIDFADSKGKGIIKYRYASMGAGQASSFQKKFTGKEPVEKIQHYLHVVFKEQLGKLYTAKTHEKMNLLSYYEFDNISAGKLKASIGNVYQGNIEANEFILHANSFPNPLNFYKNDLDTYLKNNNMYAFQSYVHGDLNGANIIIDAQDNVWIIDFFHTHRGHVLKDLVKLENDLLYIFSEMHSESDFQEALKISEVLFAVSDLQASLPDITQTGITKPSFVRVYKTLSYLRSLYSDLVEWDRNPLQVFIAQLRYSMHSLIFDECNQWQKEWALYNSGKFSQIISNKFLETDKLRIDFIKSDKIDAHSLALTILPGRKDYSRDLSEDLKEIKEQQIDCVVSLITKDEMDMYGVPELLDVYKKQGVECLHVPVIDQKIPVKAEIERINAFINAQQKKHKKVLIHCVGGLGRSGLVAACYLKSLGYPSDDAIKIVREARSSRAIESTEQEKFVYDYNERTV”: the “soluble on expression in E. coli” value is “not soluble”.

“MYGRKLYNVDQTNVYASLMFETEFNKQNSFSAGLSFNYDAYDQHYRLENQTELPLIKAFAKEAVPGAYAQYTLNLNDQWMLMAGLRGDYSNEHGFFVTPRAHLKYNPNEYVHFRLSAGKGYRTNHVLAENNYLLSSSRKVEIAKGLDMEEAWNYGASVSTYVPVFGKTLNINAEYYYTDFLKQVVVDMDSNPHEVAFYNLDGRSYSHVFQVEASYPFFKGFTLTGAYRLTDAQTTYKGQRMEKPLTSKYKGLLTASYQTPLGIWQFDATLQLNGGGRMPSPYELADGQLSWERRYGSFEQLSAQITRYFRRWSVYIGGENLTNFKQKNPIIDAANPWGGNFDSTMIWGPVHGAKAYIGIRFNLARNE”: the “soluble on expression in E. coli” value is given as “not soluble”.

As to “MKGYSMAKCLTLNTHSWMEVNALKKLFDLAEHIFREKYDIICLQEVNQSISSPLAKSSPNYHPIEGTPALHQDNFALQLVHYLNLQGLHYHWTWAYNHIGYSKYHEGVAILSLKPLKPEDILVSAVDDETDYHTRRALVAETTLNDKVVTVVSLHFSWFEKGFAEEWKRLETTLLEVETPLLLMGDFNNPTGNQGYELVLNSPLALKDSHQIANHVFGDHTIMADIDGWEGNKKALKVDHIFTSEDLSISSSQVVFEGGEAPVVSDHYGLEITMDF”, the “soluble on expression in E. coli” value is given as “not soluble”.

As to “MGSDKIHHHHHHMNAPRFAAPARRTKKLPPLRVGIGGPVGSGKTTLLEMLCKGMRERYDLVAITNDIYTKEDQRLLTIAGALPEARIMGVETGGCPHTAIREDASINLEAVERMLARFPDADIVFIESGGDNLAATFSPELSDLTIYVIDVAGGEKIPRKGGPGITKSDLLVINKTDLAPLVGANLEVMASDTRKMRGERPYVMCNLKALDGVADVIAFIENKGLLTV”, the “soluble on expression in E. coli” value is “not soluble”.

For “MSLIITGVDVHVVNLPLTSPFRSSFETKTGETRTVVRVTTDDGHVGWGETMWGSPVARLTEQLSSSLIGKSPFALEEFHATHTMVPFFYGYIGYAALAGLDVACWDLMGKITGRPLTDLIGGRVRDTVPITALITRADAPDAPPADLPVALAEHAAKVVAIGGFTAVKLKGTKDVDGDVKIMRALRAVLPDVELRVDPNAAWSVPESIRAGLRMEELDLEYLEDPCWGIDGMARVREKIRIPLCTNMCVVAFEDFAPAMRLGAVDVIHGDVYKWGGEGHHHHHH”, the “soluble on expression in E. coli” value was “not soluble”.

For the sequence “MGSDKIHHHHHHMTTFEVKDTAHVAFKIINLRCPHCHHAASFSGFDGCSDLRYNVQAKRHPSGATTNTFDIAGMRRCPNTTCRKLVFVMEDKYGEIESFPPEVIDFDASNLPSDILSSLEEAIRCHAANCYRASALMVRRTLEELCDNKSATGKDLKTRLAALGTVAVIPSELLSAADELRILGNDAAHIEAKDYDSIGKEESEIAIELAKELLKAVYQYTSLVARLTALKKPKQ”, the “soluble on expression in E. coli” value was “not soluble”.

In the case of “MKHSLPDLPYDYGALEPHINAQIMQLHHSKVHAAYVNNLNVTEEKYQEALAKGDVTAQIALQPALKFNGGGHINHSIFWTNLSPNGGGEPKGELLEAIKRDFGSFDKFKEKLTAASVGVQGSGWGWLGFNKERGHLQIAACPNQDPLQGTTGLIPLLGIDVWEHAYYLQYKNVRPDYLKAIWNVINWENVTERYMACKK”, the “soluble on expression in E. coli” value is recorded as “soluble”.

Regarding “MRNTKGNELEDREILASSLHANGISETVLLQIWNATEENLDKLVSALNVYKKGKISITWHEIMTVKENNEAIIPFSVAVQNIYGAFKNIDEELAELARNAIESGWVDAEPRENKPPGGFCAPFFSEKESRISMRYDGSIDSVRILAHELGHAWHFYNMSFEQSSSFLDDYLPMSTAESASIFFETLLINYLIQTTDSIDIKKSLLSWKIRNCFNYVMAIRASFEFEKNFYEKCKESPISADEIEKISIVAQEKAYGNALSEYQPFVWMKYVQFYIADVPFYNYPYTFGYLVSFSLLEIAKENKSTFHSKFKEFLRENGKAPVEELIKKHFEIDITSYAFWDKAFKQISKDIDAYLRLI”, the “soluble on expression in E. coli” value is reported as “not soluble”.

As to “METLHTQEDIIKMLDSLLRPAEPFWNEFYANREKDVPFFENVPDENLVSYIQKKRVSKGKVLELGCGPGRNAIYLANEGFDVTAVDVSIEGINWAKERALAKGVEIEFICDSIFNLEVQNEFDFVYDSGCLHHIPPHRRVNYVDLIKNALKSGGYFGLTCFAAGDLDERNGSEITDWDVYRGWSLQGGLAYSEEKLREIFKGFEVIEIRKMEQIEQPNTMFGESFLWTALFKKNLEHHHHHH”, the “soluble on expression in E. coli” value is recorded as “not soluble”.

As for “MAESLITKKAIAGGLMELCQHKRFEKISIADITNICGLNRQTFYYHFTDKYDLLTWTYENDFFHCLADGITLENWDKHVLKMLESIKENADFYKNTVSADASILSFCFSKLTNSLFMDLFEKIDTNGAVNEADRVFYAEFFSYGCSGVLIKWITRGFKEAPETIANQLFRLAKDTEFLANSMYRENLEHHHHHH”, the “soluble on expression in E. coli” value is “soluble”.

Take “MSEGITDIEESQIQTNYDKVVYKFDDMELDENLLRGVFGYGFEEPSAIQQRAIMPIIEGHDVLAQAQSGTGKTGTFSIAALQRIDTSVKAPQALMLAPTRELALQIQKVVMALAFHMDIKVHACIGGTSFVEDAEGLRDAQIVVGTPGRVFDNIQRRRFRTDKIKMFILDEADEMLSSGFKEQIYQIFTLLPPTTQVVLLSATMPNDVLEVTTKFMRNPVRILVKKDELTLEGIKQFYVNVEEEEYKYECLTDLYDSISVTQAVIFCNTRRKVEELTTKLRNDKFTVSAIYSDLPQQERDTIMKEFRSGSSRILISTDLLARGIDVQQVSLVINYDLPANKENYIHRIGRGGRFGRKGVAINFVTNEDVGAMRELEKFYSTQIEELPSDIATLLN”: the “soluble on expression in E. coli” value is “soluble”.

With “MSLMYPLVLDLAADGIPVTVTCRVLGFSTQAFYKWRKAPLTQRDWDDAHLINAARDIHADDPAFGYRFIADELPGRGITAGENRVARLCSQERIWSIFAKKRGLNRRSGPPVHDDLVERQFSAQAANQVWLTDITEHRTNEGKLYLCAIKDVYSNRIVGYSMDSRMKSSLAVAALDHAVALRSPVATIVHSDRGSQFRSRKFVRALSRNGLQGSMGRVGACGDNAAMESFFALLQRNVLDRKRWSTRAELRLAIVTWIERTYHRRRRQRALGRLTPIEFELLRTSVATAAEGHHHHHH”, the “soluble on expression in E. coli” value was “not soluble”.

Regarding “MITVFHSDKLTRQPFFQDLINYLDQHDHVILREIKKAFPNVTGIDKAIESYVQAGYIRRENKRYGINLPLVSSDQQLALDTMLFVDTCSAMYENILAVVFETQLTNQTNRVMIKEKTNITRDDLTLANYFYRLKRGEKPSAEQMDLYDLLGDVNQEYALKYMTTFLLKFTRKDFVMQKRPDIFVEALVTLGYLKQVEPTTYQLLMTLDKESLTFIAP”, the “soluble on expression in E. coli” value is “not soluble”.

Take “MHTKPPIERIMYIELRTSLELFRSDLVDLEALANAAKEALEQLPYIPKEPCGKGEDDPLSGPESALRTGRLCGLVCCTATAAEGALSTCSKLIDWAYENEPEGVDDAVLVDDIDDDDDDDDDGSNGANGGGGANGSGNGSNGSGNGSPPDGGVEGAAPSLDADELAQARPSRGGIALDLAQCATTTDRPVA”: the “soluble on expression in E. coli” value is on record as “not soluble”.

Take “MANSFTFWNDCVEPEDLEEMWMDPAVSAEWIDVGETKGQKVHLSRDPDGQPYLTQTEMRAVSDITVRRHFDSILDSEMICAIAELESDRKPLIMRYSKKTKETGLGILQVFEKTAAWLAGGQGYQAYNVDDNPDLLHKPFINVYFGAAYLKWLTDYQNNQRSEEFVVRAYNGGTKKATHKSTLPYWKRYLAVKESLPSRKHGDAGPSSFRPTNPASPGSNTDFTYWDSRASPEDMEDMWNQSEICKEWTKSKEERGKVRFSQDGEKRPYLSRGELKAVAEIIVSKYFSTKGIRVPLVCAIADTVCMRFVNGIKKHVGILGVDYSTASWLYSELGYRAYRVDSADDLTKPFISMYFGVAYLVWLSEYEGSQRSNQFIVQAYMKGPDHVDLEESCPLWLKFEQALSYYEESKRDSGSCVIL”: the “soluble on expression in E. coli” value was “not soluble”.

As to “MGSDKIHHHHHHMFSSEVIASFNELEMSIYNYICQHAEKVAYMRIRELADETHVSTATILRFCRKVDCDGFSEFKVKLKMHLEKEKKAPIKSSQHAIAEFFERAFRGDLEERISEAAALVADAENVIFIGIGSSGILAEYGARYFSALGKLSMYIKDFSYPIHSKLRQNSVTIALSVSGETHFTITQVNQLKQEGSKIISITNNKFSTIAKVADVNLSYYVSEEFFEKANITTQVPVVYILEAMARELYKLQG”, the “soluble on expression in E. coli” value was “not soluble”.

On to “DNNNTIEEQLNTLEKYSQGRLGVALINTEDNSQITYRGEERFAMASTSKVMAVAAVLKASEKQAGLLDKNITIKKSDLVAYSPITEKHLTTGMTLAELSAATLQYSDNTAMNKILDYLGGPAKVTQFARSINDVTYRLDRKEPELNTAIHGDPRDTTSPIAMAKSLQALTLGDALGQSQRQQLVTWLKGNTTGDNSIKAGLPKHWVVGDKTGSGDYGTTNDIAVIWPENHAPLILVVYFTQQEQNAKYRKDIIAKAAEIVTKEISNSPQTK”, for which the “soluble on expression in E. coli” value is “soluble”.

With “MGSDKIHHHHHHMKTAILDRFVFSDEVRDIIENAPEIIIPESRKEILDLAIAGRDLFEVGYEVPGKGFVVEATVTRCKNGLVVNYPEPYMRRRDPNALVVGDNLETDKPRFRERFGKEFEPIRQETFEWLKKQELILLPFMAGGYDYGYPAVLIAPKNAGFFVGGLADLQFFVPASEVPENFKPKLYMFLAPPFRHTHFDGKQVVVHYRHNSHYEIFSYNLYPGPSAKKGVYGFLLHVGEKEKWVTAHASAVKVITPYENELVIMHEGASGGGKSEILEEIHREPDGRIKLAENIVTGEKFYMELKQSCVLMPVADDMFMCHPKLQTGKKLVAKDAEAGWFIRVDHITEYGSAPDLERLTIHPPEPLIFLNIYAVPNSTALIWEHIEDEPGKPCPNPRVIIPKRFMKNAVSEPVKVDVRSFGVRTPPCTKEKPTYGIVGLMQILPPALAWLWRLVAPRGHANPSIVSTKGMTSEGVGSFWPFSSGKMVRLANILLEQIIDTPETRYILVPNQYIGAYKVGFMPEWIAREYLSRRGGVRFRPDQLVPSKCSLLGFSLKEMKIEGNTIPKELLQPHLQSEVGEEAYEKGAQELKDFFKRELKKFLTEDLNPVGREIIQCCLDDGSLDDYLKIIPMNF”, the “soluble on expression in E. coli” value is “not soluble”.

For the sequence “MGSDKIHHHHHHMNKNQYPKWEELPELDLYLDQVLLYVNQLINPKTITNDKLLTASMINNYVKHNYISKPIKKKYNRRQVARLIVITAFKQVFAIQEISQTLELLTADNHSEEAYNGFAACMNKEEVHDLPPVVISACQTLNLYQETQKLVLELGGKNKNA”, the “soluble on expression in E. coli” value is on record as “not soluble”.

On to “MTDSDGKIVWETGYQVWGNTIQEKDHGGVEQNLRYQGQYLDRETGLHYNLHRYYDPDVGRFMVTDPIGLRGGLNLYSYAPNPLKYADPLGLTPCAVSNQKANRLLDSSETKVTVRSRSDAEQLFMDRYLGHNYKNMTGESGPSTKNLMEYLTENKTKAGSYHWDDIKDPSVTKPSYRVSGHGPGNPDGDLPHLQVHQHGGSVRHIFFPWETLEHHHHHH”, for which the “soluble on expression in E. coli” value is “not soluble”.
